Laboratory results reported in patent US20260001953A1 (TWIST BIOSCIENCE, published 2026).

T1: SIGLEC-5 (limits assumed)
T1 construct: also called OB-BP-2
T1 receptor: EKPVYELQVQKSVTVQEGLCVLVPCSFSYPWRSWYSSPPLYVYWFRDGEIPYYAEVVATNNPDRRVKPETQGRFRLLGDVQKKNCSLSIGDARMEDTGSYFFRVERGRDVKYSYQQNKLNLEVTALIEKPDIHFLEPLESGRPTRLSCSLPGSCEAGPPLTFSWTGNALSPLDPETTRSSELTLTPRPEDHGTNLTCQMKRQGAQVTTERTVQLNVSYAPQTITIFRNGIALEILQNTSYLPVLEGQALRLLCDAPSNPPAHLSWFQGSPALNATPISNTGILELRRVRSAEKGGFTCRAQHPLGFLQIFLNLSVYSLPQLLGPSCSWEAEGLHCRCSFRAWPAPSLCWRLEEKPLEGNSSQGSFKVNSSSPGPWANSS

T2: mouse CD117 (mouse, UniProt P05532)
T2 construct: antigen of the Carterra SPR kinetics; also called murine CD117
T2 sequence (receptor, looked up): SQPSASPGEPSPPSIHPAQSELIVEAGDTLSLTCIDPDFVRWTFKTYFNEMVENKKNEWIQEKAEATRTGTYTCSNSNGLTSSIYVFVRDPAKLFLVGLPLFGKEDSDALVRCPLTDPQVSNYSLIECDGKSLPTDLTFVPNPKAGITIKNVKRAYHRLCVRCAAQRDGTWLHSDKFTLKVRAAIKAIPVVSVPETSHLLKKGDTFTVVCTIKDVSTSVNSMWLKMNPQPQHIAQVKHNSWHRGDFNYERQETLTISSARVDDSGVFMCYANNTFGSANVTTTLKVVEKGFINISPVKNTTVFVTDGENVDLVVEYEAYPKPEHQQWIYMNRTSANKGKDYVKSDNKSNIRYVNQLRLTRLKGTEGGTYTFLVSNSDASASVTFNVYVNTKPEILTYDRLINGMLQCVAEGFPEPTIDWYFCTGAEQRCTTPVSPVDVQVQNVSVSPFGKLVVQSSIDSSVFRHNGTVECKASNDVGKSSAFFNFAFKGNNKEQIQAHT


Key:
[1] = biological target: T3, SIGLEC-8 transiently expressed on cells (UniProt Q9NYZ4 17-499, limits assumed); experiment: cell binding titration, transient SIGLEC-8 line
T3 construct: whole, on cells; Two cassettes are described (P2A mVenus and direct mVenus fusion); also called the transient line; pTT5-SIGLEC-8 P2A mVenus

[2] = biological target: T4, SIGLEC-3; experiment: SPR cross-reactivity table
T4 construct: also called CD33
Outline: (§1)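 Purified antibodies against SIGLEC-8, first selected from synthetic libraries by four rounds of bead-based panning, were tested for cross-reactivity with related SIGLEC proteins by surface plasmon resonance on a Carterra instrument. Each protein tested has a dissociation constant or a binding result listed.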

[3] = biological target: T1, SIGLEC-5; experiment: SPR cross-reactivity table
Outline: as §1

[4] = biological target: T5, SIGLEC-2; experiment: SPR cross-reactivity table
T5 construct: also called CD22
Outline: as §1

[5] = biological target: T6, SIGLEC-7; experiment: SPR cross-reactivity table
T6 construct: also called p75/AIRM1
Outline: as §1

[6] = biological target: T7, Sialic acid-binding immunoglobulin-like lectin 8 (SIGLEC-8), antigen of the Carterra SPR studies (UniProt Q9NYZ4 17-363, limits assumed); experiment: Carterra SPR
Outline: (§2)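 On a Carterra instrument, surface plasmon resonance was used to measure how antibodies bind SIGLEC-8, with rate constants and dissociation constants as read-outs. The antibodies were taken from synthetic libraries by bead-based panning and clonal ELISA screening, then expressed and purified.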

[7] = biological target: T2, mouse CD117; experiment: Carterra SPR, mouse CD117
Procedure: (§3) To further evaluate the antibodies discovered during the screens, 21 clones were selected for detailed characterization and were analyzed for target binding kinetics by a Carterra SPR instrument. The binding kinetics of the anti-CD117 antibodies for human CD117, cynomolgus monkey CD117, and murine CD117 are shown in FIG. 29A-29B.

[8] = biological target: T8, Cluster of differentiation 117 (CD117), antigen of epitope binning and ELISA (UniProt P10721 26-520, limits assumed); experiment: Carterra SPR, human CD117
T8 construct: also called tyrosine-protein kinase KIT; mast/stem cell growth factor receptor (SCFR)
Procedure: as §3

[9] = biological target: T9, CD117 transiently expressed on Expi293 cells (UniProt P10721 26-976, limits assumed); experiment: FACS, MFI expressing / parental cells
T9 construct: whole, on cells; Two cassettes are described (P2A mVenus and direct mVenus fusion); also called CD117 transient cells; the transient cell line
Procedure: (§4) The transient expression of CD117 was validated with a control antibody, Expi293 (FIGS. 17A-17B). Expi293, […], was transiently transfected with CD117 48-hours post-transfection. The secondary antibody used was APC Goat anti-human IgG (diluted 1:400). 100,000 cells per well were blocked with 1×PBS+0.5% BSA for 1 hour, stained with 100 μL of the primary antibody for 1 hour, and stained with the secondary antibody for one hour, all with 3× washes in between each staining.

[10] = biological target: T10, cyno CD117 (Macaca fascicularis, UniProt A0A7N9CP24); experiment: Carterra SPR, cyno CD117
T10 construct: antigen of the Carterra SPR kinetics; also called cynomolgus monkey CD117
Procedure: as §3

[11] = biological target: T9, CD117 transiently expressed on Expi293 …; experiment: FACS cell binding, Expi293 transiently expressing CD117
Procedure: as §4

[12] = biological target: T7, Sialic acid-binding immunoglobulin-like …; experiment: Carterra SPR kinetics, summary table
Outline: as §2

T7 sequence (Q9NYZ4 17-363 limits assumed): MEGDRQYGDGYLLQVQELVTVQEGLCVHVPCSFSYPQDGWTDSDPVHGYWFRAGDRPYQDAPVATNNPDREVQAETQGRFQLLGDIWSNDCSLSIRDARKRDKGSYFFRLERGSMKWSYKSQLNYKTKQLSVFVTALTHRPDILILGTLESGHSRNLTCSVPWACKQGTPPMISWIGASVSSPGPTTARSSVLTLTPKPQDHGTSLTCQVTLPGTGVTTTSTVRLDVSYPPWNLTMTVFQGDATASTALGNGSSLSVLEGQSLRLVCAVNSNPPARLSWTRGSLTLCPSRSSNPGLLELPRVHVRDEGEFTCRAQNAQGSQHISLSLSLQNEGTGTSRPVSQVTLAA
T9 sequence (P10721 26-976 limits assumed): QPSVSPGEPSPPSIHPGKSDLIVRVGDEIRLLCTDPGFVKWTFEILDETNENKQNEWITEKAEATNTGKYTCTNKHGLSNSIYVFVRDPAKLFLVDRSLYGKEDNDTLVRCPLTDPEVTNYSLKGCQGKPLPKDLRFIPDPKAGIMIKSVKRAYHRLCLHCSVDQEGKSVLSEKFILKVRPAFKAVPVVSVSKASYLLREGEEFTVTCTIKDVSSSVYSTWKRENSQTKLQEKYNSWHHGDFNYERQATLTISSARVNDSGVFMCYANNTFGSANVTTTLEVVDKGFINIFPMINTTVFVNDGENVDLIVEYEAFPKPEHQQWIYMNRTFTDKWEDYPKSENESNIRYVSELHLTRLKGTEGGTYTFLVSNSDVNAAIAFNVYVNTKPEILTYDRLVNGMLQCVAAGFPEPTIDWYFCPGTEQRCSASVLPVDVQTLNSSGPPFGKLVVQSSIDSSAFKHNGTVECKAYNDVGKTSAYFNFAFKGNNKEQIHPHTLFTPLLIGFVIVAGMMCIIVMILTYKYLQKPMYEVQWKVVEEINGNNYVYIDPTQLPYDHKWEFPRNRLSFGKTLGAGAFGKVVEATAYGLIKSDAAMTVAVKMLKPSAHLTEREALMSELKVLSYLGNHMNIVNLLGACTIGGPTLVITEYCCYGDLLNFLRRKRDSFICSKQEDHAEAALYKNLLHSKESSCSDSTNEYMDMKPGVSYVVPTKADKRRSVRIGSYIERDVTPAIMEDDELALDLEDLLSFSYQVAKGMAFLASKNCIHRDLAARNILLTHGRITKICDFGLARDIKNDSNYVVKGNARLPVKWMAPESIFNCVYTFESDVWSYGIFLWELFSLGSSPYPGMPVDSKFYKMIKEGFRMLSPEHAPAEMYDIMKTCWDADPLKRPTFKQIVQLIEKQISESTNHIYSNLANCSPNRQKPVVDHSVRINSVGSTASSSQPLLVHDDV
T10 sequence (A0A7N9CP24 entry or part of it): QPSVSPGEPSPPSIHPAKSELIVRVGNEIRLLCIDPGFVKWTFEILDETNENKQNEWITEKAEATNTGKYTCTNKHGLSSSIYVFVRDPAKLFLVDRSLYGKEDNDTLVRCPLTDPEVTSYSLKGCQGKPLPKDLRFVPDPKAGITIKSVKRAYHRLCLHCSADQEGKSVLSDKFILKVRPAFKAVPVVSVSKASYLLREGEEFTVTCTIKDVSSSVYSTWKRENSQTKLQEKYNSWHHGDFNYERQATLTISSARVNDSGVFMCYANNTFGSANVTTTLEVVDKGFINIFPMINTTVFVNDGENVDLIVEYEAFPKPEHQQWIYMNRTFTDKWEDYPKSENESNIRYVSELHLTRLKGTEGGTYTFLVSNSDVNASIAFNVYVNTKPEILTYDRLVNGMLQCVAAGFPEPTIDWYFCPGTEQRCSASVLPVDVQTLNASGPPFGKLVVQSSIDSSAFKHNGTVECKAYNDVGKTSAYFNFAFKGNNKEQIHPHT
T8 sequence (P10721 26-520 limits assumed): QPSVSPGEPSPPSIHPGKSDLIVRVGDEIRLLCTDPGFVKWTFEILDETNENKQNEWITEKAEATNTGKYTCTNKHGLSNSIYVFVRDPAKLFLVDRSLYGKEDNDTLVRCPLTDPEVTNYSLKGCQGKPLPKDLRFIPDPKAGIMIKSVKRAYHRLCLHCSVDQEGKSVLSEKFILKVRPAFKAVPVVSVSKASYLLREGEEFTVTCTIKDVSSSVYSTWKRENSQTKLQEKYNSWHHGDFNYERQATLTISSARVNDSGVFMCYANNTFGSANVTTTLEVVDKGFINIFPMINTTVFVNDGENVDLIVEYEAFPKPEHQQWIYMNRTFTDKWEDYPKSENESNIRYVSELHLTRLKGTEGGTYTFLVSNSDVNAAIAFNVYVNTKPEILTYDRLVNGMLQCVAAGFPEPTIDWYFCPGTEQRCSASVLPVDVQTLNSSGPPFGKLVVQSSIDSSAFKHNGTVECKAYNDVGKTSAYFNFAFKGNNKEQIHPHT
T3 sequence (Q9NYZ4 17-499 limits assumed): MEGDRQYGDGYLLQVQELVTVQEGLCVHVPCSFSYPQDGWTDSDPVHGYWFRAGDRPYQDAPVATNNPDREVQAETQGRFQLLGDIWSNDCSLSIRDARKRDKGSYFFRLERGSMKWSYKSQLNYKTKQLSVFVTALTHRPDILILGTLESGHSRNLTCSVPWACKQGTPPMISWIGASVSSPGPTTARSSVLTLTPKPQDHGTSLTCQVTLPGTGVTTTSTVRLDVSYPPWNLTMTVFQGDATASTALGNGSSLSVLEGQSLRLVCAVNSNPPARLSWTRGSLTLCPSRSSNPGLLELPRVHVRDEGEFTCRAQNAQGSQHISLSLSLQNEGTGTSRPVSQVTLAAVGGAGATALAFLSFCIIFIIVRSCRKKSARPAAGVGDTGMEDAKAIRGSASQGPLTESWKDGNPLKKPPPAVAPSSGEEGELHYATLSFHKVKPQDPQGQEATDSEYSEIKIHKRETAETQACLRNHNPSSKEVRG
T4 sequence (receptor, as listed by the source limits assumed): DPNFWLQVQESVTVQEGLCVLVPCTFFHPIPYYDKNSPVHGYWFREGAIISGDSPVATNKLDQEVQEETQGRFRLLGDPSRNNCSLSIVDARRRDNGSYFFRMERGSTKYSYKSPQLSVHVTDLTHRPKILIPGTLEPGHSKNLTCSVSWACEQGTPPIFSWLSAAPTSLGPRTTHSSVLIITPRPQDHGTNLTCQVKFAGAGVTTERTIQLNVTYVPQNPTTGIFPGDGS
T5 sequence (chain, as listed by the source limits assumed): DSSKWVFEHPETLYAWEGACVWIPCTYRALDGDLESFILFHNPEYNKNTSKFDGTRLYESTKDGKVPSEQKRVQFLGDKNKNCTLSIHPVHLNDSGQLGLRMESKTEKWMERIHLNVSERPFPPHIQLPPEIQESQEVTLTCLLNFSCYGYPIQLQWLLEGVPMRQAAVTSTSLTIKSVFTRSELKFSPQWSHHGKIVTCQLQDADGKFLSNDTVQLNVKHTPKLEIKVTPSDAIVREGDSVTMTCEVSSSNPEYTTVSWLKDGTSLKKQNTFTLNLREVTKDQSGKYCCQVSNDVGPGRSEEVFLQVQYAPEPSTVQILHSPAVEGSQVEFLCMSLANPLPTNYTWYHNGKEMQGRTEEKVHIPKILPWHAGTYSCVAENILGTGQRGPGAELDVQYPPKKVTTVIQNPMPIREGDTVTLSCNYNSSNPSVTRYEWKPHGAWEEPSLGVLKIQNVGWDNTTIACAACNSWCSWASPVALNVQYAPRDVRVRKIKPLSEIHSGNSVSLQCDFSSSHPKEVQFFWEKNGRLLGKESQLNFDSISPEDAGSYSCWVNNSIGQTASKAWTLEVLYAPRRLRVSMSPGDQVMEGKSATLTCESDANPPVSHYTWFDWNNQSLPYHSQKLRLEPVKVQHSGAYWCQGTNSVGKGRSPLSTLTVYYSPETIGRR
T6 sequence (receptor, as listed by the source limits assumed): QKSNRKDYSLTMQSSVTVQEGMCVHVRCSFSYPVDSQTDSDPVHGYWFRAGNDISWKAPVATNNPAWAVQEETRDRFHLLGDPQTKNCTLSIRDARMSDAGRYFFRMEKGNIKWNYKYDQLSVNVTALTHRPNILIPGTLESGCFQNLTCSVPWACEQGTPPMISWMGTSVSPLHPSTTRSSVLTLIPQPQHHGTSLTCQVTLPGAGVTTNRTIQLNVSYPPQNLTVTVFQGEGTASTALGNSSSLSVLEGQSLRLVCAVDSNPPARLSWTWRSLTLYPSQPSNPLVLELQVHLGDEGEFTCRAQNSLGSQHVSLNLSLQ

| Binder | EC50 [1] [nM] | binding result [2] | Kd [3] [nM] | Kd [4] [nM] | binding result [5] | Kd [6] [nM] | binding result [7] | Kd [8] [nM] | koff [8] [s⁻¹] | kon [8] [M⁻¹ s⁻¹] | MFI Ratio [9] | Kd [10] [nM] | koff [10] [s⁻¹] | kon [10] [M⁻¹ s⁻¹] | EC50 [11] [nM] | binding result [8] | koff [12] [s⁻¹] | kon [12] [M⁻¹ s⁻¹] | Kd [2] [nM] | Kd [5] [nM] |
| --- | --- | --- | --- | --- | --- | --- | --- | --- | --- | --- | --- | --- | --- | --- | --- | --- | --- | --- | --- | --- |
| SIGLEC-8-8 (antibody, human IgG1, kappa, V domains shown, tested as expressed and purified mAb) VH: EVQLLESGGGLVQPGGSLRLSCAASGFTFNYYALSWVRQAPGKGLEWVSGISGSGGTTFYADSVKGRFTISRDNSKNTLYLQMNSLRAEDTAVYYCARRGGWYSFDIWGQGTLVTVSS VL: DIQMTQSPSTLSAYVGDRVTITCRASQIISTYLNWYQQKPGKAPKLLIYSASSLQSGVPSRFSGSGSGTDFTLTISSLQPEDFATYYCQQSFSAPDTFGGGTKVEIKR | 1.3 | no binding | 39.3 | 4300 | no binding | 1.65 | – | – | – | – | – | – | – | – | – | – | – | – | – | – |
| CD117-20 (antibody, human IgG1, kappa, V domains shown, detected with anti-human IgG in FACS) VH: EVQLLESGGGLVQPGGSLRLSCAASGFTFSSDAMNWVRQAPGKGLEWVSGISGSGGYTYYADSVKGRFTISRDNSKNTLYLQMNSLRAEDTAVYYCARSGNVVGDGMDVWGQGTLVTVSS VL: DIQMTQSPSSLSASVGDRVTITCRASQNIRRYLNWYQQKPGKAPKLLIYDASTLESGVPSRFSGSGSGTDFTLTISSLQPEDFATYYCQQSHTTPLTFGGGTKVEIKR | – | – | – | – | – | – | no binding | – | – | – | 14.4 | 4120 | 0.298 | 72200 | 6.24 | no binding | – | – | – | – |
| SIGLEC-8-56 (antibody, human IgG1, kappa, V domains shown, tested as expressed and purified mAb) VH: EVQLLESGGGLVQPGGSLRLSCAASGLTFSSSAMSWVRQAPGKGLEWVSAISGYGGSTYYADSVKGRFTISRDNSKNTLYLQMNSLRAEDTAVYYCAREAGYYYYGMDVWGQGTLVTVSS VL: DIQMTQSPSSLSASVGDRVTITCRASQKITSYLNWYQQKPGKAPKLLIYAASSLHDGVPSRFSGSGSGTDFTLTISSLQPEDFATYYCQQSYGTPLTFGGGTKVEIKR | 1.02 | – | 3.4 | 43.2 | – | 0.271 | – | – | – | – | – | – | – | – | – | – | 0.000156 | 576000 | 60.5 | 18 |
| CD117-12 (antibody, human IgG1, kappa, V domains shown, detected with anti-human IgG in FACS) VH: EVQLLESGGGLVQPGGSLRLSCAASGITFSSYAMTWVRQAPGKGLEWVSAISSSGTGTYYADSVKGRFTISRDNSKNTLYLQMNSLRAEDTAVYYCARERAPKDFGSSGYSFDYWGQGTLVTVSS VL: DIQMTQSPSSLSASVGDRVTITCRASQSIDIYLNWYQQKPGKAPKLLIYKASSLQSGVPSRFSGSGSGTDFTLTISSLQPEDFATYYCQQSYTVPITFGGGTKVEIKR | – | – | – | – | – | – | no binding | 187 | 0.101 | 541000 | 10.6 | 5190 | 0.201 | 38700 | 1210 | – | – | – | – | – |
| CD117-5 (antibody, human IgG1, kappa, V domains shown, detected with anti-human IgG in FACS) VH: EVQLLESGGGLVQPGGSLRLSCAASGFIFTNYAMSWVRQAPGKGLEWVSAIGGSGSSTYYADSVKGRFTVSRDNSKNTLYLQMNSLRAEDTAVYYCVKGGYSYGDSFDFWGQGTLVTVSS VL: DIQMTQSPSSLSASVGDRVTITCRASQSVRNYLNWYQQKPGKAPKLLIYDASDLQSGVPSRFSGSGSGTDFTLTISSLQPEDFATYYCQQGYSTPWTFGGGTKVEIKR | – | – | – | – | – | – | no binding | 670 | 0.201 | 300000 | 21.3 | 2390 | 0.211 | 88300 | 6.88 | – | – | – | – | – |

The remaining binders from weak to strong by Kd [10], led by results:

| EC50 [1] [nM] | binding result [2] | Kd [3] [nM] | Kd [4] [nM] | binding result [5] | Kd [6] [nM] | binding result [7] | Kd [8] [nM] | koff [8] [s⁻¹] | kon [8] [M⁻¹ s⁻¹] | MFI Ratio [9] | Kd [10] [nM] | koff [10] [s⁻¹] | kon [10] [M⁻¹ s⁻¹] | EC50 [11] [nM] | binding result [8] | koff [12] [s⁻¹] | kon [12] [M⁻¹ s⁻¹] | Kd [2] [nM] | Kd [5] [nM] | Binder |
| --- | --- | --- | --- | --- | --- | --- | --- | --- | --- | --- | --- | --- | --- | --- | --- | --- | --- | --- | --- | --- |
| – | – | – | – | – | – | no binding | 270 | 0.0679 | 252000 | 17.2 | 338 | 0.0681 | 201000 | 4.31 | – | – | – | – | – | CD117-11 (antibody, human IgG1, kappa, V domains shown, detected with anti-human IgG in FACS) VH: EVQLLESGGGLVQPGGSLRLSCAASGFTFGNFAMSWVRQAPGKGLEWVSLISGSGGNTYYADSVKGRFTISRDNSKNTLYLQMNSLRAEDTAVYYCARGDGVNGFDYWGQGTLVTVSS VL: DIQMTQSPSSLSASVGDRVTITCRASQSIPTYLNWYQQKPGKAPKLLIYATSTLESGVPSRFSGSGSGTDFTLTISSLQPEDFATYYCQQTYSTPYTFGGGTKVEIKR |
| – | – | – | – | – | – | no binding | 5.87 | 0.00388 | 662000 | 12.9 | 20.8 | 0.0272 | 1.31e+06 | 3.29 | – | – | – | – | – | CD117-19 (antibody, human IgG1, kappa, V domains shown, detected with anti-human IgG in FACS) VH: EVQLLESGGGLVQPGGSLRLSCAASGFSFSSYAMSWVRQAPGKGLEWVSAISGTGGNTYYADSVKGRFTISRDNSKNTLYLQMNSLRAEDTAVYYCARRNDFWSDAFDIWGQGTLVTVSS VL: DIQMTQSPSSLSASVGDRVTITCRASQNIYTYLNWYQQKPGKAPKLLIYDASSLHSGVPSRFSGSGSGTDFTLTISSLQPEDFATYYCQQSYSSSITFGGGTKVEIKR |
| – | – | – | – | – | – | no binding | 9.51 | 0.0058 | 610000 | 29.1 | 15.7 | 0.0108 | 685000 | 1.39 | – | – | – | – | – | CD117-9 (antibody, human IgG1, kappa, V domains shown, detected with anti-human IgG in FACS) VH: EVQLLESGGGLVQPGGSLRLSCAASGFSFTNYAMSWVRQAPGKGLEWVSSISGSGGSTYYADSVKGRFTISRDNSKNTLYLQMNSLRAEDTAVYYCARGSGSYFGFDFWGQGTLVTVSS VL: DIQMTQSPSSLSASVGDRVTITCRASQGIGTYLNWYQQKPGKAPKLLIYAASSLQPGVPSRFSGSGSGTDFTLTISSLQPEDFATYYCQQSYRPPFTFGGGTKVEIKR |
| – | – | – | – | – | – | no binding | 2.53 | 0.00336 | 1.33e+06 | 16.2 | 5.02 | 0.00679 | 1.35e+06 | 20 | – | – | – | – | – | CD117-18 (antibody, human IgG1, kappa, V domains shown, detected with anti-human IgG in FACS) VH: EVQLLESGGGLVQPGGSLRLSCAASGFTFSDYSMNWVRQAPGKGLEWVSAITGSGGNTFYADSVKGRFTISRDNSKNTLYLQMNSLRAEDTAVYYCARSNYEQDVFDIWGQGTLVTVSS VL: DIQMTQSPSSLSASVGDRVTITCRASQTIYRYLNWYQQKPGKAPKLLIYDASDLQSGVPSRFSGSGSGTDFTLTISSLQPEDFATYYCQQSYSIPITFGGGTKVEIKR |
